Legend:
[1] = target: F-actin (rabbit skeletal muscle actin, polymerised) (rabbit, UniProt P68135 1-377); assay: co-sedimentation; F-actin co-sedimentation: rabbit skeletal muscle actin polymerized with 50 mM KCl, 2 mM MgCl2, 1 mM ATP; test protein added in F-actin buffer (with 5% glycerol or no glycerol), 30 min room temperature; 150,000xg, 4 °C, 1 h; SDS-PAGE, Coomassie, densitometry; KD by curve fitting; settings: both partners purified
[2] = target: full-length human ILK (C346S; C422S), subunit of the coexpressed IPP complex (human, UniProt Q13418 1-452, C346S | C422S); assay: SEC; purified IPP complex (coexpressed in E. coli, co-purified by Ni affinity on His6-PINCH-1) on Superose 6 10/300 GL; settings: both partners purified
full-length human ILK (C346S; C422S), subunit of the coexpressed IPP complex, sequence (Q13418 whole entry C346S/C422S, one chain of several): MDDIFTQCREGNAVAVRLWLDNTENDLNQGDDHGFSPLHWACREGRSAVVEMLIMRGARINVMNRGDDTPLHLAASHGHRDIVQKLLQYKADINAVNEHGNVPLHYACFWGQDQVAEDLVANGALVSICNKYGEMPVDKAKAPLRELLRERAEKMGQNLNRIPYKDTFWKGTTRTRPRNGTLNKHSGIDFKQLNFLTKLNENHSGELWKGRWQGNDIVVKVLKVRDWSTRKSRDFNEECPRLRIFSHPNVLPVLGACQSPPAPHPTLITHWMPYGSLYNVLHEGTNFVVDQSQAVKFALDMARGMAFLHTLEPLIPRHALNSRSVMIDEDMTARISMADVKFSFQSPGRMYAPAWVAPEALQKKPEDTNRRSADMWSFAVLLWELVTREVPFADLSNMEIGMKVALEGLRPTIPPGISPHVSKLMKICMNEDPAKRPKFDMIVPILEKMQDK

Kd [1] | binding result [2] | Binder
~21 µM |  | α-Parvin-N (N-terminal region 1–91) as used in F-actin co-sedimentation (domain or fragment, α-Parvin, human, N-terminal region; the text defines α-Parvin-N as 1-91; the methods list a GST-fused 1-89 and a hexahistidine-tagged 1-91 form; also called WT α-Parvin; source: E. coli, purified) MATSPQKSPSVPKSPTPKSPPSRKKDDSFLGKLGGTLARRKKAKEVSELQEEGMNAINLPLSPIPFELDPEDTMLEENEVRTMVDPNSRSD
~49 µM |  | α-Parvin-N 5A (L37A/R39A/R40A/K41A/K42A) as used in F-actin co-sedimentation (domain or fragment, α-Parvin, human, N-terminal domain, residues 1-91 (both the GST-fused and the His6-tagged 5A forms are 1-91); source: E. coli, purified) MATSPQKSPSVPKSPTPKSPPSRKKDDSFLGKLGGTAAAAAAAKEVSELQEEGMNAINLPLSPIPFELDPEDTMLEENEVRTMVDPNSRSD
 | binds | full-length human α-Parvin, subunit of the coexpressed IPP complex (natural protein, UniProt Q9NVD7 1-372, looked up) MATSPQKSPSVPKSPTPKSPPSRKKDDSFLGKLGGTLARRKKAKEVSELQEEGMNAINLPLSPIPFELDPEDTMLEENEVRTMVDPNSRSDPKLQELMKVLIDWINDVLVGERIIVKDLAEDLYDGQVLQKLFEKLESEKLNVAEVTQSEIAQKQKLQTVLEKINETLKLPPRSIKWNVDSVHAKSLVAILHLLVALSQYFRAPIRLPDHVSIQVVVVQKREGILQSRQIQEEITGNTEALSGRHERDAFDTLFDHAPDKLNVVKKTLITFVNKHLNKLNLEVTELETQFADGVYLVLLMGLLEGYFVPLHSFFLTPDSFEQKVLNVSFAFELMQDGGLEKPKPRPEDIVNCDLKSTLRVLYNLFTKYRNVE
